Test results published in IntAct's records for PubMed 17576925.

B1: Long-distance movement protein (Groundnut rosette virus (strain MC1)), Q67684 (parent)
chain: MDTTPASRGQWPVGIMSSVINVFASGKSCNSGGAPRSSVRRGHRAGAARDKSRGFDAPPRRPKGGVHPATTSKDPNKDIRGPPAPTPHKKYRGPAIPGEGRSGVHTTRPRRRAGRSGGMDPRQLVAQPQQRWAKTEIPTERRAEIDGLLPSLLNTLDGQIQGDAALLRYCVGAIKRELRRRWESVQPAHHVAASSGKPSPQLFNEAAQNAEDLSGDGKGCAGQSVQQEVLHSGSGVPPVCADCGKPAANKW
partner: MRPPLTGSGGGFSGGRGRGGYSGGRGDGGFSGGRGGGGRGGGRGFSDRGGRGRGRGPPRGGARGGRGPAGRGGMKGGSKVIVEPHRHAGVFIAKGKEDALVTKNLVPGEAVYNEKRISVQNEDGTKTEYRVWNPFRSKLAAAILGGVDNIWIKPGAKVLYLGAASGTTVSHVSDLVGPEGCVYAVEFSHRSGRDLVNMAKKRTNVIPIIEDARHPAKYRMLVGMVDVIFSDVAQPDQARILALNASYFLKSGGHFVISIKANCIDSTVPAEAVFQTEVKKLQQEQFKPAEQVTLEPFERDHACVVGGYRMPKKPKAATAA

Variants of: B1
Details: with fbrl2_arath FIB2, Q94AH9

Variant	effect of a mutation on the interaction
MDTTPASRGQWPVGIMSSVINVFASGKSCNSGGAPRSSVRRGHRAGAARDKSRGFDAPPRRPKGGVHPATTSKDPNKDIRGPPAPTPHKKYRGPAIPGEGRSGVHTTRPRRRAGRSGGMDPRQLVAQPQQRWAKTEIPTERRAEIDGLAPSLLNTLDGQIQGDAALLRYCVGAIKRELRRRWESVQPAHHVAASSGKPSPQLFNEAAQNAEDLSGDGKGCAGQSVQQEVLHSGSGVPPVCADCGKPAANKW [L149A]	disrupting interaction strength
